Results reported in the supplement of paper PMC9112550, “Optimization of the antimicrobial peptide Bac7 by deep mutational scanning” (BMC Biology, 2022).

The sequences below were run on Escherichia coli TOP10 (assay: shrunken log2 fold change of peptide-encoding DNA abundance (4.5 h post-induction vs induction); higher = less antimicrobial activity (less host growth inhibition)). Details: time post-induction: 4.5 h; library: site-saturation at positions 5, 18, 19, 20.
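Also: peptides expressed intracellularly from a pBAD plasmid library in pooled LB shake-flask culture, induced with 0.3% L-arabinose, DNA abundance read by NGS, three biological replicates, DESeq2 with apeglm shrinkage.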

| Sequence | shrunken log2 fold change |
| --- | --- |
| RRIRWRPPRLPRPRPRPHVYPRP | -0.132 |
| RRIRCRPPRLPRPRPRPFKSPRP | 0.122 |
| RRIRGRPPRLPRPRPRPFCGPRP | 0.224 |
| RRIRWRPPRLPRPRPRPAYSPRP | -0.153 |
| RRIRWRPPRLPRPRPRPYSRPRP | -0.0788 |
| RRIRCRPPRLPRPRPRPNKCPRP | -0.279 |
| RRIRQRPPRLPRPRPRPFGTPRP | -0.1 |
| RRIRSRPPRLPRPRPRPMVNPRP | 0.00321 |
| RRIRRRPPRLPRPRPRPQRDPRP | 0.179 |
| RRIRERPPRLPRPRPRPYYCPRP | -0.913 |
| RRIRRRPPRLPRPRPRPAIDPRP | 0.193 |
| RRIRARPPRLPRPRPRPTYGPRP | -0.0482 |
| RRIRFRPPRLPRPRPRPWLTPRP | -0.0554 |
| RRIRKRPPRLPRPRPRPVYQPRP | 0.131 |
| RRIRNRPPRLPRPRPRPIRKPRP | -0.0111 |
| RRIRYRPPRLPRPRPRPRMLPRP | -1.08 |
| RRIRFRPPRLPRPRPRPGYDPRP | -0.292 |
| RRIRYRPPRLPRPRPRPRRNPRP | -0.268 |
| RRIRDRPPRLPRPRPRPCHIPRP | -0.251 |
| RRIRSRPPRLPRPRPRPLDCPRP | -0.212 |
| RRIRDRPPRLPRPRPRPHWNPRP | -0.201 |
| RRIRIRPPRLPRPRPRPMCIPRP | -0.232 |
| RRIRPRPPRLPRPRPRPWVMPRP | 0.211 |
| RRIRTRPPRLPRPRPRPMERPRP | 0.0039 |
| RRIRHRPPRLPRPRPRPPKRPRP | -0.142 |

| Sequence | shrunken log2 fold change |
| --- | --- |
| RRIRCRPPRLPRPRPRPMKNPRP | -0.128 |
| RRIRERPPRLPRPRPRPFMHPRP | -0.121 |
| RRIRFRPPRLPRPRPRPCADPRP | -0.102 |
| RRIRYRPPRLPRPRPRPPGDPRP | 0.152 |
| RRIRCRPPRLPRPRPRPIGFPRP | 0.129 |
| RRIRERPPRLPRPRPRPAWTPRP | 0.0563 |
| RRIRIRPPRLPRPRPRPGKWPRP | 0.0539 |
| RRIRARPPRLPRPRPRPRIGPRP | 0.267 |
| RRIRVRPPRLPRPRPRPYFGPRP | -0.0505 |
| RRIRIRPPRLPRPRPRPAQAPRP | 0.2 |
| RRIRYRPPRLPRPRPRPGEKPRP | 0.0799 |
| RRIRTRPPRLPRPRPRPRHHPRP | -0.174 |
| RRIRERPPRLPRPRPRPSKTPRP | -0.0833 |
| RRIRMRPPRLPRPRPRPPYTPRP | -0.0678 |
| RRIRMRPPRLPRPRPRPNWRPRP | 0.0183 |
| RRIRYRPPRLPRPRPRPHKFPRP | -0.609 |
| RRIRERPPRLPRPRPRPHPWPRP | -0.392 |
| RRIRVRPPRLPRPRPRPGWCPRP | 0.146 |
| RRIRGRPPRLPRPRPRPLDMPRP | 0.441 |
| RRIRKRPPRLPRPRPRPALYPRP | 0.453 |
| RRIRYRPPRLPRPRPRPSRYPRP | -0.122 |
| RRIRNRPPRLPRPRPRPTFTPRP | -0.245 |
| RRIRRRPPRLPRPRPRPKKAPRP | -0.00843 |
| RRIRWRPPRLPRPRPRPCWGPRP | -0.122 |
| RRIRWRPPRLPRPRPRPAKHPRP | 0.192 |

| Sequence | shrunken log2 fold change |
| --- | --- |
| RRIRDRPPRLPRPRPRPAKIPRP | -0.00511 |
| RRIRTRPPRLPRPRPRPVHTPRP | 0.243 |
| RRIRHRPPRLPRPRPRPMCVPRP | -0.192 |
| RRIRNRPPRLPRPRPRPPERPRP | 0.537 |
| RRIRERPPRLPRPRPRPSKHPRP | -0.775 |
| RRIRCRPPRLPRPRPRPWWQPRP | 0.0101 |
| RRIRLRPPRLPRPRPRPDLLPRP | -0.0261 |
| RRIRDRPPRLPRPRPRPCILPRP | 1.16 |
| RRIRHRPPRLPRPRPRPGWRPRP | 0.232 |
| RRIRERPPRLPRPRPRPIPCPRP | -0.341 |
| RRIRERPPRLPRPRPRPRVDPRP | 0.0531 |
| RRIRYRPPRLPRPRPRPMHFPRP | -0.00783 |
| RRIRLRPPRLPRPRPRPLTYPRP | -0.448 |
| RRIRLRPPRLPRPRPRPYWGPRP | -0.304 |
| RRIRHRPPRLPRPRPRPNFSPRP | -0.415 |
| RRIRARPPRLPRPRPRPMWMPRP | 0.0208 |
| RRIRCRPPRLPRPRPRPCFCPRP | -0.367 |
| RRIRARPPRLPRPRPRPATVPRP | 0.214 |
| RRIRNRPPRLPRPRPRPYSGPRP | 0.00884 |
| RRIRERPPRLPRPRPRPIGSPRP | -0.587 |
| RRIRHRPPRLPRPRPRPLMGPRP | 0.11 |
| RRIRCRPPRLPRPRPRPAHHPRP | -0.222 |
| RRIRDRPPRLPRPRPRPIGYPRP | -0.174 |
| RRIRERPPRLPRPRPRPHRQPRP | -0.0179 |
| RRIRDRPPRLPRPRPRPCVIPRP | 0.1 |

| Sequence | shrunken log2 fold change |
| --- | --- |
| RRIRWRPPRLPRPRPRPHWNPRP | -0.676 |
| RRIRMRPPRLPRPRPRPKNTPRP | 0.575 |
| RRIRRRPPRLPRPRPRPCLVPRP | -0.096 |
| RRIRARPPRLPRPRPRPELMPRP | 1.19 |
| RRIRWRPPRLPRPRPRPFEHPRP | -0.113 |
| RRIRLRPPRLPRPRPRPTWAPRP | 0.17 |
| RRIRTRPPRLPRPRPRPDDRPRP | 0.0143 |
| RRIRRRPPRLPRPRPRPSEKPRP | 0.51 |
| RRIRFRPPRLPRPRPRPGDKPRP | 0.215 |
| RRIRWRPPRLPRPRPRPHEEPRP | 0.0119 |
| RRIRIRPPRLPRPRPRPEEGPRP | -0.05 |
| RRIRQRPPRLPRPRPRPWIMPRP | -0.141 |
| RRIRDRPPRLPRPRPRPMYKPRP | -0.363 |
| RRIRARPPRLPRPRPRPSEMPRP | 0.29 |
| RRIRLRPPRLPRPRPRPPQCPRP | -0.313 |
| RRIRWRPPRLPRPRPRPYVWPRP | -0.0228 |
| RRIRLRPPRLPRPRPRPEIFPRP | 0.161 |
| RRIRMRPPRLPRPRPRPALQPRP | 0.791 |
| RRIRKRPPRLPRPRPRPTNLPRP | -0.0903 |
| RRIRARPPRLPRPRPRPLYLPRP | -0.367 |
| RRIRFRPPRLPRPRPRPVPGPRP | 0.1 |
| RRIRSRPPRLPRPRPRPIPWPRP | -0.121 |
| RRIRYRPPRLPRPRPRPGHIPRP | 0.0162 |
| RRIRVRPPRLPRPRPRPTMWPRP | 0.267 |
| RRIRQRPPRLPRPRPRPYCCPRP | -0.781 |

| Sequence | shrunken log2 fold change |
| --- | --- |
| RRIRNRPPRLPRPRPRPHSWPRP | 0.00366 |
| RRIRKRPPRLPRPRPRPWKFPRP | 0.0297 |
| RRIRKRPPRLPRPRPRPMYPPRP | 0.00349 |
| RRIRERPPRLPRPRPRPVNWPRP | -0.0528 |
| RRIRDRPPRLPRPRPRPQSCPRP | -0.0045 |
| RRIRKRPPRLPRPRPRPTTQPRP | 0.196 |
| RRIRMRPPRLPRPRPRPNLVPRP | 0.288 |
| RRIRNRPPRLPRPRPRPNAKPRP | -0.109 |
| RRIRIRPPRLPRPRPRPGKAPRP | 0.039 |
| RRIRFRPPRLPRPRPRPIYIPRP | -0.832 |
| RRIRIRPPRLPRPRPRPNLDPRP | -0.564 |
| RRIRQRPPRLPRPRPRPKDIPRP | 0.0266 |
| RRIRCRPPRLPRPRPRPLYVPRP | -0.833 |
| RRIRTRPPRLPRPRPRPSTNPRP | -0.488 |
| RRIRTRPPRLPRPRPRPIFRPRP | 0.00202 |
| RRIRCRPPRLPRPRPRPFMNPRP | -0.00951 |
| RRIRTRPPRLPRPRPRPIHWPRP | 0.0444 |
| RRIRTRPPRLPRPRPRPKYTPRP | -0.508 |
| RRIRPRPPRLPRPRPRPLIDPRP | -0.0112 |
| RRIRSRPPRLPRPRPRPVKQPRP | 0.0733 |
| RRIRCRPPRLPRPRPRPNETPRP | -0.0198 |
| RRIRERPPRLPRPRPRPAKFPRP | 0.112 |
| RRIRSRPPRLPRPRPRPGFWPRP | 0.654 |
| RRIRGRPPRLPRPRPRPINFPRP | -0.189 |
| RRIRDRPPRLPRPRPRPKGDPRP | 0.0039 |

| Sequence | shrunken log2 fold change |
| --- | --- |
| RRIRCRPPRLPRPRPRPWRQPRP | -0.167 |
| RRIRQRPPRLPRPRPRPSTAPRP | 0.0789 |
| RRIRPRPPRLPRPRPRPPFNPRP | -0.126 |
| RRIRRRPPRLPRPRPRPFCRPRP | 0.551 |
| RRIRPRPPRLPRPRPRPVFWPRP | 0.546 |
| RRIRNRPPRLPRPRPRPNTIPRP | -0.0529 |
| RRIRSRPPRLPRPRPRPKQYPRP | -0.361 |
| RRIRMRPPRLPRPRPRPRWAPRP | 1.3 |
| RRIRSRPPRLPRPRPRPPQTPRP | 0.365 |
| RRIRDRPPRLPRPRPRPDYGPRP | -0.181 |
| RRIRPRPPRLPRPRPRPGQMPRP | -0.0125 |
| RRIRFRPPRLPRPRPRPEIGPRP | -0.0537 |
| RRIRQRPPRLPRPRPRPKGLPRP | 0.0353 |
| RRIRNRPPRLPRPRPRPYQVPRP | -0.0131 |
| RRIRCRPPRLPRPRPRPSNVPRP | -0.608 |
| RRIRIRPPRLPRPRPRPRSIPRP | 0.0721 |
| RRIRGRPPRLPRPRPRPTGYPRP | 0.559 |
| RRIRLRPPRLPRPRPRPATYPRP | -0.212 |
| RRIRGRPPRLPRPRPRPYGFPRP | -0.0296 |
| RRIRPRPPRLPRPRPRPKSAPRP | 0.532 |
| RRIRTRPPRLPRPRPRPDLPPRP | 0.0603 |
| RRIRFRPPRLPRPRPRPHIPPRP | -0.289 |
| RRIRHRPPRLPRPRPRPHRKPRP | -0.351 |
| RRIRQRPPRLPRPRPRPFEFPRP | -0.109 |
| RRIRHRPPRLPRPRPRPWFEPRP | -0.366 |
